# Experimental data from patent publication US20100292442A1 (Amgen, published 2010).
# Positions count from the first letter of the chain named.
# B1: AMH21/AML21 (antibody, V domains shown)
# VH: EVQLVESGGGSVQPGGSLRLSCAASGFTFSSYSMNWVRQAPGKGLEWVSIISSRSSIIHYADSVKGRFTISRDNAKNSLYLQMNSLRDEDTAVYYCARPKVGGGMDVWGQGTTVTVSS
# VL: DIQMTQSPSSLSASVGDRVTITCRASQGISNYLAWYQQKPGKFPELLIYAASTLQSGVPSRFSGSGSGTDFTLTISSLQPEDVATYYCQKYNRAPFTFGPGTKVDIK
# notes: Fully human mAb from IgG2 XenoMouse hybridomas; also called AM-21
# B2: AMH15/AML15 (antibody, IgG2, V domains shown)
# VH: QVQLVESGGGVVQPGRSLRLSCAASGFTFSSYGMQWVRQAPGKGLEWVAVIWYDGNKKYYADSVKGRFTISRDNSKNTLYLQMNSLRAEDTAVYYCARGRVRDYYYGMDVWGQGTTVTVSS
# VL: EIVMTQSPATLSVSPGERVTLSCRASQSVSSNLAWFQQKPGQAPRPLIYDASTRAAGIPARFSGSGSGTDFTLTISSLQSEDFAVYYCQQYDNWPLTFGGGTKVEIK
# notes: Fully human mAb from IgG2 XenoMouse hybridomas; also called AM-15
# B3: AMH14/AML14 (antibody, V domains shown)
# VH: QVQLVQSGAEVKKPGASVKVSCKASGYTFTRYGISWVRQAPGQGLEWMGWISTYSGNTNYAQKLQGRVTMTTDTSTSTAYMELRSLRSDDTAVYYCARRQLYFDYWGQGTLVTVSS
# VL: B2 VL with V19A, A56T, I58V
# notes: Fully human mAb from IgG2 XenoMouse hybridomas; also called AM-14
# B4: AMH17/AML17 (antibody, V domains shown)
# VH: B3 VH with S17A, S25T, F29L, R31S, T53A, N59K, R99K, Y102V
# VL: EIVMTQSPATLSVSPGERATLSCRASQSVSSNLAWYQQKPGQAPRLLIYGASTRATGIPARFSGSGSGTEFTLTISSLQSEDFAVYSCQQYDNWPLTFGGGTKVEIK
# notes: Fully human mAb from IgG2 XenoMouse hybridomas; also called AM-17
# B5: AMH12/AML12 (antibody, V domains shown)
# VH: B3 VH with F29L, R31S, S55K, R99K, Y102V
# VL: B2 VL with V19A, V29I, N32S, F36Y, P46L, D50G, A56T, D70E, D82N
# notes: Fully human mAb from IgG2 XenoMouse hybridomas; also called AM-12
# B6: AMH16/AML16 (antibody, V domains shown)
# VH: B3 VH with R31S, T53A, S55N, N59K, A79V, R99K, Y102V
# VL: EIVMTQSPATLSVSPGERATLSCRASQSISTSLAWYQQKPGQAPRLLIYGTSTRATGIPARFSGSGSGTEFTLTISSLQSEDFAVYFCQQYDIWPLTFGGGTKVEIK
# notes: Fully human mAb from IgG2 XenoMouse hybridomas; also called AM-16
# B7: AMH13/AML13 (antibody, V domains shown)
# VH: B2 VH
# VL: DIVMTQTPLSLSVTPGQPASIACKSSQSLLHSDGKTYLYWYLQKPGQPPQLLIYEVSTRFSGVPDRFSGSGSGTDFTLKISRVEAEDVGVFYCMQSIQLPLTFGGGTKVEIK
# notes: Fully human mAb from IgG2 XenoMouse hybridomas
# B8: AMH1/AML1 (antibody, V domains shown)
# VH: QVQLQESGPGLVKPSETLSLTCTVSGGSISNYYWNWIRQSPGKGLEWIGDIYYSGSTNYNPSLKSRVTISVDTSKNQFSLKLSSVTTADTAVYYCARDGELANYYGSGSYQFYYYYGMDVWGQGTTVTVSS
# VL: DILMTQSPSSLSASVGDRVTITCRASQGIRNDLGWYQQKPGKAPKRLIYAASSLQSGVPSRFSGSGSGTEFTLTISSLQPEDFATYYCLQHNSNPFTFGPGTKVDIK
# notes: as for B7
# B9: AMH5/AML5 (antibody, IgG2, V domains shown)
# VH: QVQLQESGPGLVKPSETLPLTCTVSGGSIRSYYWSWIRQPAGKGLEWIGRIYRSGNTIYNPSLKSRVTMSIDTSKNQFSLTLSSVTAADTAVYYCARENYSESSGLYYYYGMDVWGQGTTVTVSS
# VL: B8 VL with L3Q, L54F, E70G, N94Y, F96P, P100Q, D105E
# notes: Fully human mAb from IgG2 XenoMouse hybridomas; also called AM-5
# B10: AMH11/AML11 (antibody, V domains shown)
# VH: QVQLVESGGGVVQPGRSLRLSCATSGITFSSYGMHWVRQAPGKGLEWVAVIWYDGSNKYYADSVKGRFTISRDNSKNTLYLQMNSLRAEDTAVYYCARDTKDYWGQGTLVTVSS
# VL: EIVMTQSPATLSVSPGERATLSCRASQSVSSNLAWYQQKPGQAPRLLIYGASTRAAGIPARFSGGGSGTAFTLTISNLQSEDFAVYYCQHYINWPKWTFGQGTKVDIK
# notes: as for B7
# B11: AMH22/AML22 (antibody, V domains shown)
# VH: B3 VH with T53A
# VL: B2 VL
# notes: Fully human mAb from IgG2 XenoMouse hybridomas; also called AM-22
# B12: AMH7/AML7 (antibody, V domains shown)
# VH: QVQLVQSGAEVKKPGASVKVSCKASGYTLTRYGISWVRQAPGQGLEWMGWISAYNGNTNYAQKLQGRVTMTTDTSTSTAYMELRSLRSDDTAVYYCARRDYDILTGYYNGFDPWGQGTLVTVSS
# VL: B8 VL with L3Q, N92K, N94Y, F96L, P100G, D105E
# notes: as for B7
# B13: AMH6/AML6 (antibody, V domains shown)
# VH: B12 VH
# VL: B8 VL with L3Q, N92K, N94Y, F96L, P100G, D105E
# notes: as for B7
# B14: AMH8/AML8 (antibody, V domains shown)
# VH: B12 VH with Y27N, L29F, R31G, K63N
# VL: B8 VL with L3Q, N92K, N94Y, F96L, P100G, D105E
# notes: as for B7
# B15: AMH18/AML18 (antibody, V domains shown)
# VH: QVQLVQSGAEVKKPGASVKVSCKASGYSFTDYYMHWVRQAPGQGLEWMGWMHPNSGGTDLAQRFQGRVTMTRDTSISTAYMELSRLRSDDTAVYYCARGGYCSTLSCSFYWYFDLWGRGTLVTVSS
# VL: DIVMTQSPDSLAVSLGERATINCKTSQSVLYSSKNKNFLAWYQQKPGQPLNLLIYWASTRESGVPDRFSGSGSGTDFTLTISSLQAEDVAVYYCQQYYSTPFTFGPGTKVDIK
# notes: as for B7
# B16: AMH20/AML20 (antibody, V domains shown)
# VH: B1 VH with S11L, I50F, S53A, I57T, H59Y
# VL: B1 VL
# notes: Fully human mAb from IgG2 XenoMouse hybridomas; also called AM-20
# B17: AMH4/AML4 (antibody, V domains shown)
# VH: B10 VH with T24A, T28N, Y59H, K101G, D102V
# VL: not shown
# notes: as for B7
# B18: AMH10/AML10 (antibody, V domains shown)
# VH: QVQLQESGPGLVKPSQTLSLTCTVSGGSISSGGYYWSWIRQHPGKGLEWIGYIYFSGSAYYNPSLKSRVAISVDTSKNQFSLKLSSVTAADTAVYYCAREYYDSSGYPDAFDIWGQGTMVTVSS
# VL: DIQMTQSPSSVSASVGDRVTITCRASQGIRSWLAWYQQKPGKAPKLLIFAASSLQSGVPSRFSGSGSGTEFTLTISSLQPEDFATYYCQQANNFPRTFGQGTKVEIK
# notes: Fully human mAb from IgG2 XenoMouse hybridomas; also called AM-10
# Target: T1, cynomolgus IL-17RA on cells (cynomolgus)
# T1 construct: whole, on cells; also called CHO-cynoIL-17RA; cyno IL-17RA+ CHO cells
# Experiment: FACS competition, non-clonal hybridoma supernatant; MFI of biotin-huIL-17A (competitor, 500 ng/ml) on cyno IL-17RA+ CHO cells
row,Binder,MFI [MFI]
1,B1,6
2,B2,6
3,B3,10

# Target: T1, cynomolgus IL-17RA on cells
# Experiment: as above
# Remark: another data set of the same source
# Description: (§1) Non-clonal hybridoma supernatants were prepared in volumes of 1-2 mls (the Ig concentrations were not determined for these supernatants). […] Anti-IL-17RA non-clonal hybridomas were selected for sub-cloning based on their performance in the CHO-IL-17RA FACS assay and HFF bioassay.
row,Binder,MFI [MFI]
1,B4,8
2,B5,6
3,B6,6
4,B7,6

# Target: T2, Human IL-17RA full-length expressed on the surface of cells (human, UniProt Q96F46 33-866)
# T2 construct: used here for over-expressing CHO cells (FACS) and for the native receptor on human fibroblasts (bioassays); also called IL-17RA CHO cells; CHO-huIL-17RA
# Experiment: FACS competition, non-clonal hybridoma supernatant; % cells positive for biotin-huIL-17A (competitor, 500 ng/ml) on huIL-17RA+ CHO cells
# Description: as §1
row,Binder,% positive [%]
1,B4,1.75
2,B5,1
3,B6,1.84
4,B7,1.52

# Target: T1, cynomolgus IL-17RA on cells
# Experiment: FACS competition, non-clonal hybridoma supernatant; MFI of biotin-huIL-17A (competitor, 500 ng/ml) on cyno IL-17RA+ CHO cells
# Remark: another data set of the same source
row,Binder,MFI [MFI]
1,B8,11
2,B9,9
3,B10,9
4,B11,18

# Target: T1, cynomolgus IL-17RA on cells
# Experiment: cell-based or functional assay
row,Binder,"IC50, cynomolgous IL-17A-induced IL-6 production from JTC-12 cells [nM]"
1,B3,~1.2

# Target: T3, huIL-17RA-FLAG-polyHis (human, UniProt Q96F46 33-320)
# T3 construct: also called wild-type IL-17RA-FLAG-polyHis; HuIL-17RA-Flag-pHis
# Experiment: Luminex binning; bead huIgG control (f15) + IL-17RA [D00007 Fig. 8B]
# Description: Cross-competition studies were performed to determine IL-17RA binding characteristics of exemplary IL-17RA neutralizing antibodies. […] The method employed the Bio-Plex Workstation and software (BioRad, Hercules, Calif.), as well as reagents from Luminex® Corp. (Austin, Tex.). The manufacturers' basic protocols were followed except where noted below (see www.bio-rad.com and www.luminexcorp.com for details). […] The mouse-anti-human IgG coating was evaluated and the beads quantified by FACS. Each bead code was separately incubated with 10 ul of anti-IL-17RA antibody for 1 hour at room temperature and then washed. The beads were pooled and then dispensed to a 96-well filter plate (Millipore, Billerica, Mass., product #MSBVN1250). […] The PE-tagged monovalent antibody will detect the presence of the second mAb added to the well, but not the first mAb captured by the monovalent mouse-anti-human IgG antibody. Beads were resuspended in 120 ul PBSAT and at least 100 events/bead code were collected on the Bio-Plex workstation as per the manufacturer's recommended protocol.
row,Binder,normalized MFI
1,B12,123
2,B13,26
3,B14,54
4,B15,-5
5,B1,28
6,B16,50
7,B17,37
8,B10,84
9,B4,56
10,B5,32
11,B6,95
12,B18,140

# Target: T2, Human IL-17RA full-length expressed on …
# Experiment: FACS competition, non-clonal hybridoma supernatant; % cells positive for biotin-huIL-17A (competitor, 500 ng/ml) on huIL-17RA+ CHO cells (second % positive column)
# Description: as §1
row,Binder,% positive [%]
1,B4,1.23
2,B5,1.36
3,B6,0.76
4,B7,0.89
